{
  "source": "paper PMC3688683",
  "about": "“The N-Terminal Domains of Vps3 and Vps8 Are Critical for Localization and Function of the CORVET Tethering Complex on Endosomes” (PLoS ONE, 2013)",
  "target": "T1, Vps3-TAP (full-length Vps3, C-terminal TAP tag) (yeast (genomic locus of BY4741/BY4733 …, UniProt P23643 1-1011))",
  "T1 construct": "Vps3, CORVET-specific subunit, yeast, full-length; also called Vps3-Cbp; source: yeast, genomically TAP-tagged, in lysate; overexpressed and TAP-purified from yeast for the GST-Rab pull-down; not shown: TAP, C-terminal, kept",
  "T1 sequence (looked up)": "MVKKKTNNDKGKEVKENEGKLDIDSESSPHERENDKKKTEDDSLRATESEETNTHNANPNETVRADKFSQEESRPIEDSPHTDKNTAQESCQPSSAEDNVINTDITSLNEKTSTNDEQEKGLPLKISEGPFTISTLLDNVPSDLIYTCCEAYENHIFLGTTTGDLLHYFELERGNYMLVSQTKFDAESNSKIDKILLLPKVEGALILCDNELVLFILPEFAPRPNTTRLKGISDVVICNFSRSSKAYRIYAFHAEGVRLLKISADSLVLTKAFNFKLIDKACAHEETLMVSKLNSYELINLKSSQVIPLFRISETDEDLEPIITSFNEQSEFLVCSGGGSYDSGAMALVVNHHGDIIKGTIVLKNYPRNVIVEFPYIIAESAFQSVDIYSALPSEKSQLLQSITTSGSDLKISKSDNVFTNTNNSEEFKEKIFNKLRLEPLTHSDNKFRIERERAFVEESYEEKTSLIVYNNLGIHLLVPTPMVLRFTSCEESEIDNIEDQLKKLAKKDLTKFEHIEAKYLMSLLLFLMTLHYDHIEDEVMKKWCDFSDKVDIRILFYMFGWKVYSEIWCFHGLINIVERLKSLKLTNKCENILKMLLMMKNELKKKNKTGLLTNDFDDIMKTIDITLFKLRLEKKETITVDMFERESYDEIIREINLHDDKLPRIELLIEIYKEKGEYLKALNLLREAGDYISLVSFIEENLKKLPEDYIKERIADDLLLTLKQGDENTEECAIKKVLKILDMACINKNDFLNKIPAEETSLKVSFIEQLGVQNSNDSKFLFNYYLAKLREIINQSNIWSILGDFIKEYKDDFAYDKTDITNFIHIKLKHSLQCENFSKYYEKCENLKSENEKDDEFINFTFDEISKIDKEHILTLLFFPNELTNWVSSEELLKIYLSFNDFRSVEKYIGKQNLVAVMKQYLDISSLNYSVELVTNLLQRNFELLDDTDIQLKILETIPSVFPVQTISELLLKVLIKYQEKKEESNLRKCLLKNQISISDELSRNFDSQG",
  "assay": "pull-down; 150 µg GST-Vps21 loaded with GTPγS (or GDP) on GSH-Sepharose; 35 µg yeast-purified Vps3-Cbp construct, 1 h at 4°C; 20 mM HEPES/NaOH pH 7.4, 150 mM NaCl, 2 mM MgCl2, 0.1% NP-40, 7 mg/ml BSA; eluted with 20 mM EDTA; blot against Cbp",
  "settings": "both partners purified",
  "data": [
    {"binder": "GST-Vps21 (natural protein, yeast, UniProt P36017 1-210, looked up, Vps21, endosomal Rab5-like GTPase of yeast; loaded with GTPγS or GDP before the pull-down; Held on GSH-Sepharose; nucleotide state set by loading with 1 mM GTPγS or GDP; also called Vps21-GTP; immobilized Vps21; source: recombinant) MNTSVTSIKLVLLGEAAVGKSSIVLRFVSNDFAENKEPTIGAAFLTQRVTINEHTVKFEIWDTAGQERFASLAPMYYRNAQAALVVYDVTKPQSFIKARHWVKELHEQASKDIIIALVGNKIDMLQEGGERKVAREEGEKLAEEKGLLFFETSAKTGENVNDVFLGIGEKIPLKTAEEQNSASNERESNNQRVDLNAANDGTSANSACSC", "values": [
      {"measurement": "binding result", "value": "binds"}
    ]}
  ]
}
